Assay results: patent publication WO2025026282A1 (dated 2025)

B1: 12A69 (other)
chain 1: QAVVTQEPSLTVSPGGTVTLTCRSSTGAVTTSNYANWVQQKPGQAPRGLIGGTNKRAPWTPARFSGSLLGGKAALTLSGAQAEDEADYYCALWYSNLWVFGGGTKLTVLRTVAAQVQLVQSGAEVKKPGSSVKVSCKTSGDTFSSYAISWVRDAPGQCLEWMGGIIPIFGKAHYAQKFQGRVTITADESTSTAYMELSSLRSEDTAVYFCARKFHFVSGSPFGMDVWGQGTTVTVSSASEPKSSDKTHTCPPCPAPPVAGPSVFLFPPKPKDTLMISRTPEVTCVVVDVSQEDPEVKFNWYVDGVEVHNAKTKPREEQFNSTYRVVSVLTVLHQDWLNGKEYKCKVSNKGLPSSIEKTISKAKGQPREPQVYTLPPSRDELTKNQVSLWCLVKGFYPSDIAVEWESNGQPENNYKTTPPVLDSDGSFFLYSKLTVDKSRWQQGNVFSCSVMHEALHNHYTQKSLSLSP
chain 2: EVQLVESGGGLVQPGGSLRLSCAASGFTFTDYYMNWVRQAPGKALEWLGFIRNKVNGDTTEYAASVKGRFTISRDDSKNSLYLQMNSLKTEDTAVYYCARDKGIAYYFDYWGQGTLVTVSSASTKGPSVFPLAPSSKSTSGGTAALGCLVKDYFPEPVTVSWNSGALTSGVHTFPAVLQSSGLYSLSSVVTVPSSSLGTQTYICNVNHKPSNTKVDKKVEPKSCDGGGGSGGGGSEIVLTQSPATLSLSPGERATLSCRASQSVSSYLAWYQKKPGQAPRLLIYDASNRATGIPARFSGSGSGTDFTLTISSLEPEDFAVYYCQQRSNAPTFGCGTKVEIKRTVAAEVQLVESGGGLVQPGGSLRLSCAASGFTFSTYAMNWVRQAPGKGLEWVGRIRSKYNNYATYYADSVKGRFTISRDDSKNSLYLQMNSLRAEDTAVYYCVRHGNFGTSYVSWFAYWGQGTLVTVSS
chain 3: EVQLVESGGGLVQPGGSLRLSCAASGFTFTDYYMNWVRQAPGKALEWLGFIRNKVNGDTTEYAASVKGRFTISRDDSKNSLYLQMNSLKTEDTAVYYCARDKGIAYYFDYWGQGTLVTVSSASTKGPSVFPLAPSSKSTSGGTAALGCLVKDYFPEPVTVSWNSGALTSGVHTFPAVLQSSGLYSLSSVVTVPSSSLGTQTYICNVNHKPSNTKVDKKVEPKSCDKTHTCPPCPAPPVAGPSVFLFPPKPKDTLMISRTPEVTCVVVDVSQEDPEVKFNWYVDGVEVHNAKTKPREEQFNSTYRVVSVLTVLHQDWLNGKEYKCKVSNKGLPSSIEKTISKAKGQPREPQVYTLPPSRDELTKNQVSLSCAVKGFYPSDIAVEWESNGQPENNYKTTPPVLDSDGSFFLVSKLTVDKSRWQQGNVFSCSVMHEALHNRFTQKSLSLSP
chain 4: EIVLTQSPATLSASPGERATLSCRASQSVSYIHWYQQKPGQSPRPWIHGTSNLATGVPARFSGSGSGTDFTLTISSLEPEDAAVYYCQQWSSNLSTFGGGTKVEIKRTVAAPSVFIFPPSDEQLKSGTASVVCLLNNFYPREAKVQWKVDNALQSGNSQESVTEQDSKDSTYSLSSTLTLSKADYEKHKVYACEVTHQGLSSPVTKSFNRGEC
B2: 12A44 (other)
chain 1: QAVVTQEPSLTVSPGGTVTLTCRSSTGAVTTSNYANWVQQKPGQAPRGLIGGTNKRAPWTPARFSGSLLGGKAALTLSGAQAEDEADYYCALWYSNLWVFGGGTKLTVLRTVAAQVQLVQSGAEVKKPGSSVKVSCKTSGDTFSSYAISWVRDAPGQCLEWMGGIIPIFGKAHYAQKFQGRVTITADESTSTAYMELSSLRSEDTAVYFCARKFHFVSGSPFGMDVWGQGTTVTVSSASEPKSSDKTHTCPPCPAPPVAGPSVFLFPPKPKDTLMISRTPEVTCVVVDVSQEDPEVKFNWYVDGVEVHNAKTKPREEQFNSTYRVVSVLTVLHQDWLNGKEYKCKVSNKGLPSSIEKTISKAKGQPREPQVYTLPPSRDELTKNQVSLWCLVKGFYPSDIAVEWESNGQPENNYKTTPPVLDSDGSFFLYSKLTVDKSRWQQGNVFSCSVMHEALHNHYTQKSLSLSP
chain 2: EVQLVESGGGLVQPGGSLRLSCAASGFTFTDYYMNWVRQAPGKALEWLGFIRNKVNGDTTEYAASVKGRFTISRDDSKNSLYLQMNSLKTEDTAVYYCARDKGIAYYFDYWGQGTLVTVSSASTKGPSVFPLAPSSKSTSGGTAALGCLVKDYFPEPVTVSWNSGALTSGVHTFPAVLQSSGLYSLSSVVTVPSSSLGTQTYICNVNHKPSNTKVDKKVEPKSCDGGGGSGGGGSEIVLTQSPATLSLSPGERATLSCRASQSVSSYLAWYQKKPGQAPRLLIYDASNRATGIPARFSGSGSGTDFTLTISSLEPEDFAVYYCQQRSNWPTFGCGTKVEIKRTVAAEVQLVESGGGLVQPGGSLRLSCAASGFTFSTYAMNWVRQAPGKGLEWVGRIRSQYNNYATYYADSVKGRFTISRDDSKNSLYLQMNSLRAEDTAVYYCVRHGNFGTSYVSWFAYWGQGTLVTVSS
chain 3: EVQLVESGGGLVQPGGSLRLSCAASGFTFTDYYMNWVRQAPGKALEWLGFIRNKVNGDTTEYAASVKGRFTISRDDSKNSLYLQMNSLKTEDTAVYYCARDKGIAYYFDYWGQGTLVTVSSASTKGPSVFPLAPSSKSTSGGTAALGCLVKDYFPEPVTVSWNSGALTSGVHTFPAVLQSSGLYSLSSVVTVPSSSLGTQTYICNVNHKPSNTKVDKKVEPKSCDKTHTCPPCPAPPVAGPSVFLFPPKPKDTLMISRTPEVTCVVVDVSQEDPEVKFNWYVDGVEVHNAKTKPREEQFNSTYRVVSVLTVLHQDWLNGKEYKCKVSNKGLPSSIEKTISKAKGQPREPQVYTLPPSRDELTKNQVSLSCAVKGFYPSDIAVEWESNGQPENNYKTTPPVLDSDGSFFLVSKLTVDKSRWQQGNVFSCSVMHEALHNRFTQKSLSLSP
chain 4: EIVLTQSPATLSASPGERATLSCRASQSVSYIHWYQQKPGQSPRPWIHGTSNLATGVPARFSGSGSGTDFTLTISSLEPEDAAVYYCQQWSSNLSTFGGGTKVEIKRTVAAPSVFIFPPSDEQLKSGTASVVCLLNNFYPREAKVQWKVDNALQSGNSQESVTEQDSKDSTYSLSSTLTLSKADYEKHKVYACEVTHQGLSSPVTKSFNRGEC
B3: 12A46 (other)
chain 1: QAVVTQEPSLTVSPGGTVTLTCRSSTGAVTTSNYANWVQQKPGQAPRGLIGGTNKRAPWTPARFSGSLLGGKAALTLSGAQAEDEADYYCALWYSNLWVFGGGTKLTVLRTVAAQVQLVQSGAEVKKPGSSVKVSCKTSGDTFSSYAISWVRDAPGQCLEWMGGIIPIFGKAHYAQKFQGRVTITADESTSTAYMELSSLRSEDTAVYFCARKFHFVSGSPFGMDVWGQGTTVTVSSASEPKSSDKTHTCPPCPAPPVAGPSVFLFPPKPKDTLMISRTPEVTCVVVDVSQEDPEVKFNWYVDGVEVHNAKTKPREEQFNSTYRVVSVLTVLHQDWLNGKEYKCKVSNKGLPSSIEKTISKAKGQPREPQVYTLPPSRDELTKNQVSLWCLVKGFYPSDIAVEWESNGQPENNYKTTPPVLDSDGSFFLYSKLTVDKSRWQQGNVFSCSVMHEALHNHYTQKSLSLSP
chain 2: EVQLVESGGGLVQPGGSLRLSCAASGFTFTDYYMNWVRQAPGKALEWLGFIRNKVNGDTTEYAASVKGRFTISRDDSKNSLYLQMNSLKTEDTAVYYCARDKGIAYYFDYWGQGTLVTVSSASTKGPSVFPLAPSSKSTSGGTAALGCLVKDYFPEPVTVSWNSGALTSGVHTFPAVLQSSGLYSLSSVVTVPSSSLGTQTYICNVNHKPSNTKVDKKVEPKSCDGGGGSGGGGSEIVLTQSPATLSLSPGERATLSCRASQSVSSYLAWYQKKPGQAPRLLIYDASNRATGIPARFSGSGSGTDFTLTISSLEPEDFAVYYCQQRSNWPTFGCGTKVEIKRTVAAEVQLVESGGGLVQPGGSLRLSCAASGFTFSTYAMNWVRQAPGKGLEWVGRIRSKYNNYATYYADSVKGRFTISRDDSKNSLYLQMNSLRAEDTAVYYCVRHGNFGTSYASWFAYWGQGTLVTVSS
heavy: EVQLVESGGGLVQPGGSLRLSCAASGFTFTDYYMNWVRQAPGKALEWLGFIRNKVNGDTTEYAASVKGRFTISRDDSKNSLYLQMNSLKTEDTAVYYCARDKGIAYYFDYWGQGTLVTVSSASTKGPSVFPLAPSSKSTSGGTAALGCLVKDYFPEPVTVSWNSGALTSGVHTFPAVLQSSGLYSLSSVVTVPSSSLGTQTYICNVNHKPSNTKVDKKVEPKSCDKTHTCPPCPAPPVAGPSVFLFPPKPKDTLMISRTPEVTCVVVDVSQEDPEVKFNWYVDGVEVHNAKTKPREEQFNSTYRVVSVLTVLHQDWLNGKEYKCKVSNKGLPSSIEKTISKAKGQPREPQVYTLPPSRDELTKNQVSLSCAVKGFYPSDIAVEWESNGQPENNYKTTPPVLDSDGSFFLVSKLTVDKSRWQQGNVFSCSVMHEALHNRFTQKSLSLSP
light: EIVLTQSPATLSASPGERATLSCRASQSVSYIHWYQQKPGQSPRPWIHGTSNLATGVPARFSGSGSGTDFTLTISSLEPEDAAVYYCQQWSSNLSTFGGGTKVEIKRTVAAPSVFIFPPSDEQLKSGTASVVCLLNNFYPREAKVQWKVDNALQSGNSQESVTEQDSKDSTYSLSSTLTLSKADYEKHKVYACEVTHQGLSSPVTKSFNRGEC
notes: Kabat position; choice of chain inferred; also called V100C A (12A46)

Legend:
Human PD-L1 = molecular target: T1, Human PD-L1 (human, UniProt Q9NZQ7 19-238, limits assumed); assay: BLI (Octet R8), human PD-L1
T1 construct: Diluted to 2 ug/ml in KB buffer for BLI; construct not described

human CD3 epsilon = molecular target: T2, human CD3 epsilon (human, UniProt P07766 23-126, limits assumed); assay: SPR (Biacore), antigen captured, antibody as analyte
T2 construct: the same molecule is used here for both
T2 sequence (P07766 23-126 limits assumed): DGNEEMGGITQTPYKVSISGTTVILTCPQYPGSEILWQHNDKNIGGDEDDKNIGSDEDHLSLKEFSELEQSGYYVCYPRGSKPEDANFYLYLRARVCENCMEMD

T1 sequence (Q9NZQ7 19-238 limits assumed): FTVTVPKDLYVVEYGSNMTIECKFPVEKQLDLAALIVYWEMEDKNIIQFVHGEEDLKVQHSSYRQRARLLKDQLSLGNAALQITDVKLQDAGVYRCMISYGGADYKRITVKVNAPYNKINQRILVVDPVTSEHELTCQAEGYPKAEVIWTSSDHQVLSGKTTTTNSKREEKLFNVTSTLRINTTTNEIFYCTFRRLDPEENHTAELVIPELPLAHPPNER

| Binder | Kd (Human PD-L1) [µM] | Kd (human CD3 epsilon) [µM] |
| --- | --- | --- |
| B1 | 0.0728 | – |
| B2 | – | 0.118 |
| B3 | – | 0.176 |
